Test results taken from patent US20240263208A1, “CYTOCHROME P450 ENZYME” (HYPHA DISCOVERY LTD., priority 2021, published 2024).

Tests used:
Assay type in all cases: biochemical
[1] = Oxidase activity testing against buparvaquone; details: substrate Buparvaquone
Method: (§1) Lyophilised material of recombinant P450, ferredoxin and ferredoxin reductase proteins was made as described in Example 4 and reconstituted in high purity water to the original volume. Biocatalysis was performed with shaking incubation at 27° C. in the following conditions: 100 mM potassium phosphate pH 8.0, 5 mM MgCl2 (both present in the reconstituted enzyme preparation) and 0.1 mg/ml substrate compound such as ambroxide (Sigma-Aldrich, UK), carbamazepine (Sigma-Aldrich, UK), diclofenac (Sigma-Aldrich, UK), tivantinib (MedChemtronica, Sweden), clarithromycin (Tokyo Chemical Industry, Japan), sclareol (Sigma-Aldrich, UK), celecoxib (LC Laboratories, USA), buparvaquone (Sigma-Aldrich, UK), BIRB796 (MedChemExpress, USA), vanoxerine (CiVentiChem, USA), valsartan (Tokyo Chemical Industry, Japan), ruxolitinib (LC Laboratories, USA), perindopril (Selleckchem, USA), solifenacin (Key Organics, UK), 7-ethoxycoumarin (Tokyo Chemical Industry, Japan), tofacitinib (LC Laboratories, USA), ebastine (Key Organics, UK), efavirenz (Key Organics, UK), propanalol (Sigma-Aldrich, UK) and tolbutamide (Key Organics, UK).
(§2) Concentrations of P450, ferredoxin and ferredoxin reductase were as extracted (Example 4). Reactions were initiated by addition of 10× stock of cofactor mixture (50 mM G6P, 10 mM NADP+, 10 UN/ml G6PDH) to provide a final volume of e.g., 10 μl to 90 μl for 100 μl total reaction volumes. After 16-20 hours, reactions were extracted with an equal volume of acetonitrile, centrifuged to remove precipitated proteins and conversion assessed by UPLC-MS analysis.
(§3) UPLC Data were Obtained as Follows: • Column: Acquity UPLC BEH Shield RP18 1.7 μm 2.1 mm i.d. 50 mm length • Solvents: H2O, B: Acetonitrile, both with 0.1% Formic acid • Flow rate: 1.0 ml/min • Detector: Waters Acquity UPLC PDA (UV-Vis detection) and Waters Acquity UPLC QDA (MS)
(§4) Representative results for the % conversions of various substrates to products by enzymes with mutations at position T109 or L198 and double mutants at T109 and 1129/L198 are shown in Table 4 below.

[2] = Oxidase activity testing against efavirenz; details: substrate Efavirenz
Method: as §1, §2, §3, §4

[3] = Oxidase activity testing against perindopril; details: substrate Perindopril
Method: as §1, §2, §3, §4

[4] = Oxidase activity testing against carbamazepine
Method: as §1, §2, §3
To confirm the identities of reaction products where known, their chromatographic retention time, mass and ultraviolet spectra were compared with those of authentic metabolite standards.
Representative results for the % conversions of carbamazepine to oxidised (+16 Da) products for single point mutants at position L198 are shown in Table 3 below.

[5] = Oxidase activity testing against ebastine; details: for Average % conversion: substrate Ebastine
Method: as §1, §2, §3, §4

[6] = Oxidase activity testing against sclareol; details: for Average % conversion: substrate Sclareol, UPLC-MS UV or MS peak areas
Method: as §1, §2, §3, §4

[7] = Oxidase activity testing against ruxolitinib; details: substrate Ruxolitinib
Method: as §1, §2, §3, §4

[8] = Oxidase activity testing against solifenacin; details: substrate Solifenacin
Method: as §1, §2, §3, §4

[9] = Oxidase activity testing against tolbutamide; details: substrate Tolbutamide
Method: as §1, §2, §3, §4

[10] = Oxidase activity testing against clarithromycin; details: for Average % conversion: substrate Clarithromycin; for new product at 3.12 minutes (3″-O-demethylclarithromycin) from clarithromycin: chromatographic analysis, FIGS. 5 and 6
Method: as §1, §2, §3, §4

[11] = Oxidase activity testing against tofacitinib; details: substrate Tofacitinib
Method: as §1, §2, §3, §4

[12] = Oxidase activity testing against valsartan; details: substrate Valsartan
Method: as §1, §2, §3, §4

[13] = Oxidase activity testing against 7-ethoxycoumarin; details: substrate 7-ethoxycoumarin
Method: as §1, §2, §3, §4

[14] = Oxidase activity testing against celecoxib; details: substrate Celecoxib
Method: as §1, §2, §3, §4

[15] = Oxidase activity testing against BIRB796; details: substrate BIRB796
Method: as §1, §2, §3, §4

[16] = Oxidase activity testing against vanoxerine; details: substrate Vanoxerine
Method: as §1, §2, §3, §4

[17] = Oxidase activity testing against propanalol; details: substrate Propanalol
Method: as §1, §2, §3, §4

B1: SeuC10M9: P450SeuC10 with L198A mutation, SEQ ID NO: 22 (protein)
chain: MKIGTTHLTRLRGLSMTELTDITGPAAQAETVAFPQDRTCPYHPPTGYDPLRDGRPLSRVTLYDGREVWLVTAQATARALLADPRLSTDRRRDGFPVPTPRFAAGRDRTLALLGLDDPEHHRQRRLLIPSFTLKRATAQRPWIQRIVDELLDAMIARGPVADLVSAFALPVPSMVICELLGVPYADHEFFEEQSRRLARGPTGADTTDARDRLEAYLGDLIDAKAKEAEPGDGILDDLVHNRLRAGELDRSVLVSLAVILLVAGHETTANMISLGTYTLLQHPERLAELRADPSLLPAVVEELLRMLSIAEGLQRLALEDIEIDGITIRAGEGVLFSTSVINRDTAVYEDPDDLDFHRADRHHVAFGFGIHQCLGQNLARAELEIALGSLFTRLPGLRLAAPAEEIPFKPGDTVQGMLELPVTW
modifications: SeuC10M9
Work on B1 yielded an Average % conversion ([1]; Batch 1) of 1.2%, an Average % conversion ([2]; Batch 1) of 3.1% and an Average % conversion ([3]; Batch 1) of 15.7%. For the same molecule, the “+16 Da (1.18 min) 253 m/z” value ([4]; 2-hydroxycarbamazepine, relative MS peak area) was 1.1%, the “+16 Da (1.14 min) 253 m/z” value ([4]; carbamazepine epoxide, relative MS peak area) was 15.8% and the “reaction products from carbamazepine (in words)” value ([4]; new product at 1.18 minutes identified as 2-hydroxycarbamazepine, epoxide at 1.14 minutes) was “produce a new product”. For the same molecule, the “Parent (1.31 min) 237 m/z” value ([4]; remaining carbamazepine, relative MS peak area, 0.1 mg/ml, 27° C., 16-20 hours) was 83.1%, the Average % conversion ([4]; substrate carbamazepine, relative MS peak areas) was 16.9% and the “conversion of ebastine compared to wild-type (in words)” value [5] was “significantly increased conversion”. For the same molecule, the Average % conversion ([5]; Batch 1) was 25.1%, the “conversion of sclareol compared to wild-type (in words)” value [6] was “significantly increased conversion” and the Average % conversion ([6]; Batch 1) was 75.2%. The Average % conversion ([7]; Batch 1) was 55.1%, the Average % conversion ([8]; Batch 1) was 0.8% and the Average % conversion ([9]; Batch 1) was 14.7%. The Average % conversion ([10]; Batch 1) was 0%, the Average % conversion ([11]; Batch 1) was 6.2% and the Average % conversion ([12]; Batch 1) was 6.9%. It also gave an Average % conversion ([13]; Batch 1) of 10.7%, an Average % conversion ([14]; Batch 1) of 2.6% and an Average % conversion ([15]; Batch 1) of 10%. For the same molecule, the Average % conversion ([16]; Batch 1) was 23% and the Average % conversion ([17]; Batch 1) was 0%.

B2: M15: P450SeuC10 with L198T mutation, SEQ ID NO: 34 (protein)
chain: MKIGTTHLTRLRGLSMTELTDITGPAAQAETVAFPQDRTCPYHPPTGYDPLRDGRPLSRVTLYDGREVWLVTAQATARALLADPRLSTDRRRDGFPVPTPRFAAGRDRTLALLGLDDPEHHRQRRLLIPSFTLKRATAQRPWIQRIVDELLDAMIARGPVADLVSAFALPVPSMVICELLGVPYADHEFFEEQSRRLTRGPTGADTTDARDRLEAYLGDLIDAKAKEAEPGDGILDDLVHNRLRAGELDRSVLVSLAVILLVAGHETTANMISLGTYTLLQHPERLAELRADPSLLPAVVEELLRMLSIAEGLQRLALEDIEIDGITIRAGEGVLFSTSVINRDTAVYEDPDDLDFHRADRHHVAFGFGIHQCLGQNLARAELEIALGSLFTRLPGLRLAAPAEEIPFKPGDTVQGMLELPVTW
modifications: SeuC10M15
B2 gave an Average % conversion ([1]; Batch 2) of 0%, an Average % conversion ([2]; Batch 2) of 4.3% and an Average % conversion ([3]; Batch 2) of 35.4%. For the same molecule, the Average % conversion ([5]; Batch 2) was 0.5%, the Average % conversion ([6]; Batch 2) was 61% and the Average % conversion ([7]; Batch 2) was 100%. The Average % conversion ([8]; Batch 2) was 6%, the Average % conversion ([9]; Batch 2) was 28.3% and the “new product at 3.12 minutes (3″-O-demethylclarithromycin) from clarithromycin” value [10] was “not observed”. The Average % conversion ([10]; Batch 2) was 0%, the Average % conversion ([11]; Batch 2) was 32.3% and the Average % conversion ([12]; Batch 2) was 20.9%. It also gave an Average % conversion ([13]; Batch 2) of 14.7%, an Average % conversion ([14]; Batch 2) of 7.2% and an Average % conversion ([15]; Batch 2) of 34.4%. The Average % conversion ([16]; Batch 2) was 41% and the Average % conversion ([17]; Batch 2) was 0%.

B3: M52: P450SeuC10 with T109D mutation, SEQ ID NO: 122 (protein)
chain: MKIGTTHLTRLRGLSMTELTDITGPAAQAETVAFPQDRTCPYHPPTGYDPLRDGRPLSRVTLYDGREVWLVTAQATARALLADPRLSTDRRRDGFPVPTPRFAAGRDRDLALLGLDDPEHHRQRRLLIPSFTLKRATAQRPWIQRIVDELLDAMIARGPVADLVSAFALPVPSMVICELLGVPYADHEFFEEQSRRLLRGPTGADTTDARDRLEAYLGDLIDAKAKEAEPGDGILDDLVHNRLRAGELDRSVLVSLAVILLVAGHETTANMISLGTYTLLQHPERLAELRADPSLLPAVVEELLRMLSIAEGLQRLALEDIEIDGITIRAGEGVLFSTSVINRDTAVYEDPDDLDFHRADRHHVAFGFGIHQCLGQNLARAELEIALGSLFTRLPGLRLAAPAEEIPFKPGDTVQGMLELPVTW
modifications: SeuC10M52
Molecule B3 has an Average % conversion ([1]; Batch 2) of 24.8%, an Average % conversion ([2]; Batch 2) of 0% and an Average % conversion ([3]; Batch 2) of 37.9%. The Average % conversion ([5]; Batch 2) was 3.1%, the Average % conversion ([6]; Batch 2) was 25.4% and the Average % conversion ([7]; Batch 2) was 87.7%. It also gave an Average % conversion ([8]; Batch 2) of 17.2%, an Average % conversion ([9]; Batch 2) of 26.3% and an Average % conversion ([10]; Batch 2) of 1%. It also gave an Average % conversion ([11]; Batch 2) of 38.2%, an Average % conversion ([12]; Batch 2) of 16.1% and an Average % conversion ([13]; Batch 2) of 17.3%. For the same molecule, the Average % conversion ([14]; Batch 2) was 29.7%, the Average % conversion ([15]; Batch 2) was 13% and the Average % conversion ([16]; Batch 2) was 65%. For the same molecule, the Average % conversion ([17]; Batch 2) was 0%.

B4: M31: P450SeuC10 with T109F and I259A double mutations, SEQ ID NO: 128 (protein)
chain: MKIGTTHLTRLRGLSMTELTDITGPAAQAETVAFPQDRTCPYHPPTGYDPLRDGRPLSRVTLYDGREVWLVTAQATARALLADPRLSTDRRRDGFPVPTPRFAAGRDRFLALLGLDDPEHHRQRRLLIPSFTLKRATAQRPWIQRIVDELLDAMIARGPVADLVSAFALPVPSMVICELLGVPYADHEFFEEQSRRLLRGPTGADTTDARDRLEAYLGDLIDAKAKEAEPGDGILDDLVHNRLRAGELDRSVLVSLAVALLVAGHETTANMISLGTYTLLQHPERLAELRADPSLLPAVVEELLRMLSIAEGLQRLALEDIEIDGITIRAGEGVLFSTSVINRDTAVYEDPDDLDFHRADRHHVAFGFGIHQCLGQNLARAELEIALGSLFTRLPGLRLAAPAEEIPFKPGDTVQGMLELPVTW
modifications: SeuC10M31
B4 showed an Average % conversion ([1]; Batch 2) of 0%, an Average % conversion ([2]; Batch 2) of 4.1% and an Average % conversion ([3]; Batch 2) of 14.6%. It also gave an Average % conversion ([5]; Batch 2) of 0%, an Average % conversion ([6]; Batch 2) of 1.3% and an Average % conversion ([7]; Batch 2) of 46.9%. The Average % conversion ([8]; Batch 2) was 2.2%, the Average % conversion ([9]; Batch 2) was 2.9% and the “new product at 3.12 minutes (3″-O-demethylclarithromycin) from clarithromycin” value [10] was “not observed”. It also gave an Average % conversion ([10]; Batch 2) of 0.7%, an Average % conversion ([11]; Batch 2) of 8.2% and an Average % conversion ([12]; Batch 2) of 0.6%. For the same molecule, the Average % conversion ([13]; Batch 2) was 2.9%, the Average % conversion ([14]; Batch 2) was 0.4% and the Average % conversion ([15]; Batch 2) was 0%. It also gave an Average % conversion ([16]; Batch 2) of 11.4% and an Average % conversion ([17]; Batch 2) of 0%.
